Tests used:
normal tissues = experiment: Immunohistochemistry on micro array of normal tissues; parameters: species or system human; details: 17 samples
Experimental: Human tissue microarrays were obtained from US BioMax (Rockville, Md.). The tissue microarrays were deparaffinized in xylene (2 changes, 10 minutes each) then rehydrated by sequential 5 minute washes in 100% ethanol, 95% ethanol, 70% ethanol, 50% ethanol, and PBS buffer. Endogenous peroxidase was blocked by incubation with Peroxidazed 1 solution (Biocare, Concord, Calif.) for 5 minutes at ambient temperature. The sections were blocked with Terminator (Biocare) containing streptavidin then rinsed with PBS buffer. The primary antibody (purified SEAM 3 (vide infra), irrelevant IgG2b control, etc. at concentrations of 1 to 5 μg/ml)) was diluted in Da Vinci Green dilution buffer (Biocare) and incubated either overnight at 4 degrees C. or for 1 hour at ambient temperature. The slides were washed 3 times for 10 minutes each with PBS buffer then incubated with biotin conjugated rabbit anti-mouse IgG secondary antibody (5 μg/ml, Vector Labs, Burlingame, Calif.) for 30 minutes at ambient temperature. After washing 3 times for 10 minutes each with PBS buffer, horse radish peroxidase-streptavidin conjugate (Vector Labs) was added and incubated at ambient temperature for 30 minutes. The slides were washed 3 times for 10 minutes each with PBS buffer and incubated with AEC substrate (Vector Labs) containing hydrogen peroxide for color development. […]

CHP-134 neuroblastoma = details: approximately proportional to level of antigen on cell surface
SK-MEL 28 melanoma cells = experiment: Flow cytometry binding to cells; format: cell-based, human
Experimental: (§1) Cells (approximately 10^5 per well) were plated onto a flat bottom 96-well tissue culture plate (Nunc) and incubated with growth medium overnight before assay. Cells were detached from the plate by either trypsin (SK-MEL-28) or CDR (CHP-134) before being collected into a 96-round bottom plate, spun at 500 g for 5 minutes and fixed with ice-cold 1% (v/v) formaldehyde. After 20 minutes cells were pelleted by centrifugation (above) and incubated a blocking solution of 3% (v/v) goat serum with and without Triton X-100 (0.5% w/v) for 1 hour. After which the primary antibodies were added and incubated for 2 h or overnight at 4° C. The cells were washed twice by pelleting and resuspension in ice-cold PBS. Secondary antibody (Invitrogen, as described above) was incubated with the cells for at least 1 hour at 4° C. in the dark. After another series of spins and washes (3 times) binding was analyzed by a Guava EastCyte flow cytometer. Control samples were treated with an isotype matched irrelevant antibody (Southern Biotech), which were used to create baseline fluorescence, or positive control mAbs that are reactive with antigens specifically expressed by the cells (i.e. anti-GD3 for SK-MEL 28 cells and anti-NCAM in CHP-134 cells). In addition, specificity of binding was shown for the Jurkat cells by preincubating SEAM 3 with 50 μg/ml N-Pr NmB PS prior to adding the mAb to the cells.

[1] = system: Jurkat T-cell leukemia cells; experiment: Flow cytometry binding to cells; format: cell-based, human
Experimental: as §1

[2] = system: CHP-134 neuroblastoma cells; experiment: Flow cytometry binding to cells; format: cell-based, human
Experimental: as §1

SK-MEL-28 melanoma cells = experiment: Fluorescence / confocal microscopy binding to cells; format: cell-based, human; details: without Triton
Experimental: (§2) After an overnight incubation cells were gently washed with PBS buffer and fixed with ice-cold 1% (v/v) formaldehyde. After 20 minutes cells were washed with PBS before blocking non-specific binding with a solution of 3% goat serum for 1 hour. To observe the presence of SEAM 3-reactive antigen that is present inside the cells, the cells were treated Triton X-100 0.5% w/v in 3% goat serum for 1 hour. The primary antibodies were added and incubated for 2 hours or overnight at 4° C. Cells were gently washed by a series (at least twice) with ice-cold PBS before isotype-specific secondary antibody (produced in goat) conjugated with either Alexa Fluor 488 (immunofluorescence and confocal), Alexa Fluor 546 (confocal) Alexa Fluor 594 (immunofluorescence), Alexa Fluor 633 (confocal) was applied for at least 1 hour at 4° C. in the dark (all secondary antibodies conjugated to fluorophores were obtained from Invitrogen, Carlsbad, Calif.). After another series of gentle washes, a hardening mounting medium containing DAPI was applied.
(§3) Confocal images were obtained using a Zeiss Meta510 CLSM at the Biological Imaging Facility, University of California, Berkeley, Calif. and were analyzed using ImageJ Software (NIH). Control antibodies and secondary antibodies applied alone were routinely used to assess background fluorescence.

[3] = system: CHP-134 neuroblastoma cells; experiment: as above; format: cell-based, human; details: without Triton
Experimental: as §2, §3

B1: SEAM 3: murine anti-N-Pr NmB polysaccharide monoclonal antibody (IgG2b), ATCC Deposit No. HB-12170 (antibody, V domains shown)
VH: EVKLQESGGGLVQPGDSLSLSCAASGFTFTPYYMGWVRQPPGKALEWLGYIRNKANGYTTEYSASVKGRFTISRDNSQSILYLQMNALRAEDSATYYCARYARGTVDSWGQGTTLTVS
VL: DIVMTQSPLTLSVTIGQPASISCKSSQSLLHSNGKTYLNWLLQRPGQSPKLLIYLVSKLESGVPDRFSGSGSGTDFTLKISRVEAEDLGLYYCLQIIHFPHTFGAGTKLELKRA
modifications: mouse
Normal tissues
  normal tissue samples positive for binding: 15 of 17
  staining grade in positive normal tissue samples: + to ++
CHP-134 neuroblastoma
  cytotoxic effect: cytotoxic effect of SEAM 3 was observed
SK-MEL 28 melanoma cells; +Triton X-100
  binding to internal antigen by flow cytometry: larger amounts of internal SEAM 3-reactive antigen
SK-MEL 28 melanoma cells; −Triton
  binding to cell surface by flow cytometry: binds to the surface of all three cell lines
[1]; +Triton X-100
  binding to internal antigen by flow cytometry: larger amounts of internal SEAM 3-reactive antigen
[1]; −Triton
  binding to cell surface by flow cytometry: least
[2]; +Triton X-100
  binding to internal antigen by flow cytometry: larger amounts of internal SEAM 3-reactive antigen
[2]; −Triton
  binding to cell surface by flow cytometry: greatest amount of binding
SK-MEL-28 melanoma cells
  binding to cell surface by microscopy: fluorescence is uniform over the cell surface
[3]
  binding to cell surface by microscopy: fluorescence is uniform over the cell surface
